Results published in patent publication US6887471.

Experiments:
[1] = target: B7 antigen (B7/BB-1, B7-1) on the cell surface (human) (UniProt P33681); assay: cell-based or functional assay
[2] = target: B7 Ig fusion protein (human) [IgG part: P01857]; assay: solid phase competition: 125I-B7 Ig binding to immobilized CTLA4 Ig
B7 Ig fusion protein = target: T1, B7 Ig fusion protein (human, UniProt P01857-1 99-330 = IgG part, limits assumed, 125I label in the solid phase binding assays); assay: FACS, indirect immunostaining of transfected COS cells
T1 construct: domain: hinge, CH2 and CH3 regions; Made as in Linsley et al. 1991; also called B7IgCγ1

Molecule | inhibition of Th-induced IgM production [1] | IC50 [2] | binding result (B7 Ig fusion protein)
murine monoclonal antibody BB-1 (anti-B7 antigen) | 65% | 22 nM | 
CD7 expressed on transfected COS cells (receptor, UniProt P09564 26-240, looked up, whole, on cells; Control transfectant; also called CD7-transfected COS cells) AQEVQQSPHCTTVPVGASVNITCSTSGGLRGIYLRQLGPQPQDIIYYEDGVVPTTDRRFRGRIDFSGSQDNLTITMHRLQLSDTGTYTCQAITEVNVYGSGTLVLVTEEQSQGWHRCSDAPPRASALPAPPTGSALPDPQTASALPDPPAASALPAALAVISFLLGLGLGVACVLARTQIKKLCSWRDKNSAACVVYEDMSHSRCNTLSSPNQYQ |  |  | no binding (tested: 10 µg/ml)
